Experimental findings from the RNAGym collection of RNA variant scans (doi:10.7554/elife.80360) are described below.

B1: HDV Ribozyme (parent)
chain: GGCCGGCAUGGUCCCAGCCUCCUCGCUGGCGCCGGCUGGGCAACAUUCCGAGGGGACCGUCCCCUCGGUAAUGGCGAAUGGGACCCA

The variants in the series derive from B1. The series can be described thus: self-cleavage, relative activity (ratio to wild type); higher = more cleavage; co-transcriptional.
GGCCGGCAUGGUCCCAGCCUCCUCGCUGGCGCCGGCUGGGCAACAUUCCUAGGGGACCGUCCCCUCGGUAAUGGCGAAUGGGACCCC [G50U A87C]: the self-cleavage worked out at 0.935.

Turning to GGCCGGCAUGGUCCCAGCCUCCUCGCUGGCGCCGGCUGGGCAACAUUCCCAGGGGACCGUCCCCUCGGUAAUGGCGAAUAGGACCCA [G50C G80A], the self-cleavage amounted to 0.523.

On to GGCCGGCAUGGUCCCAGCCUCCUCGCUGGCGCCGGCUGGGCAACAUUCCUAGGGGACCUUCCCCUCGGUAAUGGCGAAUGGGACCCA [G50U G59U], for which the self-cleavage is 0.939.

As to GGCCGGCAUGGUCCCAGCCUCCUCGCUGGCGCCGGCUGGGCAACAUUCCGCGGGGACCGUCCCCUCGGUACUGGCGAAUGGGACCCA [A51C A71C], the self-cleavage amounted to 0.692.

With GGCCGGCAUGGUCCCAGCCUCCUCGCUGGCGCCGGCUGGGCAACAUUCCGCGGGGACCGUCCCCUCGGUAAUGGCGAAUGAGACCCA [A51C G81A], the self-cleavage stood at 0.323.

Consider GGCCGGCAUGGUCCCAGCCUCCUCGCUGGCGCCGGCUGGGCAACAUUCCUAGGGUACCGUCCCCUCGGUAAUGGCGAAUGGGACCCA [G50U G55U], for which the self-cleavage turned out to be 0.906.

On to GGCCGGCAUGGUCCCAGCCUCCUCGCUGGCGCCGGCUGGGCAACAUUCCUAGGGCACCGUCCCCUCGGUAAUGGCGAAUGGGACCCA [G50U G55C], for which the self-cleavage is 1.03.

Regarding GGCCGGCAUGGUCCCAGCCUCCUCGCUGGCGCCGGCUGGGCAACAUUCCGCGGGGACCGUCCCCUGGGUAAUGGCGAAUGGGACCCA [A51C C66G], the self-cleavage came out at 0.864.

With GGCCGGCAUGGUCCCAGCCUCCUCGCUGGCGCCGGCUGGGCAACAUUCCGCGGGGACCGUCCCCUAGGUAAUGGCGAAUGGGACCCA [A51C C66A], the self-cleavage is 1.09.

With GGCCGGCAUGGUCCCAGCCUCCUCGCUGGCGCCGGCUGGGCAACAUUCCCAGGGCACCGUCCCCUCGGUAAUGGCGAAUGGGACCCA [G50C G55C], the self-cleavage turned out to be 1.14.

With GGCCGGCAUGGUCCCAGCCUCCUCGCUGGCGCCGGCUGGGCAACAUUCCCAGGGGACCGUCCCCUCGGUAAAGGCGAAUGGGACCCA [G50C U72A], the self-cleavage is 0.789.

In the case of GGCCGGCAUGGUCCCAGCCUCCUCGCUGGCGCCGGCUGGGCAACAUUCCUAGGGGACCGUCCCCUCGGUAAUGGCGAAUGGGACCGA [G50U C86G], the self-cleavage amounted to 0.811.

In the case of GGCCGGCAUGGUCCCAGCCUCCUCGCUGGCGCCGGCUGGGCAACAUUCCGCGGGGACCGACCCCUCGGUAAUGGCGAAUGGGACCCA [A51C U60A], the self-cleavage was found to be 1.11.

Turning to GGCCGGCAUGGUCCCAGCCUCCUCGCUGGCGCCGGCUGGGCAACAUUCCCAGGGGACCGUCCCCUCGGUAAUGACGAAUGGGACCCA [G50C G74A], the self-cleavage worked out at 0.471.

For GGCCGGCAUGGUCCCAGCCUCCUCGCUGGCGCCGGCUGGGCAACAUUCCCAGGGGACCGUCCCCUCGGUAAUGUCGAAUGGGACCCA [G50C G74U], the self-cleavage worked out at 0.292.

As for GGCCGGCAUGGUCCCAGCCUCCUCGCUGGCGCCGGCUGGGCAACAUUCCCAGGUGACCGUCCCCUCGGUAAUGGCGAAUGGGACCCA [G50C G54U], the self-cleavage stood at 0.374.

Turning to GGCCGGCAUGGUCCCAGCCUCCUCGCUGGCGCCGGCUGGGCAACAUUCCUAGGGGACCGUCCCCUCGGUAAUGGCGAAUUGGACCCA [G50U G80U], the self-cleavage was 0.2.

With GGCCGGCAUGGUCCCAGCCUCCUCGCUGGCGCCGGCUGGGCAACAUUCCUAGGGGACCGUCCCCUCGGUAAUGGCGAAUAGGACCCA [G50U G80A], the self-cleavage is 0.486.

As to GGCCGGCAUGGUCCCAGCCUCCUCGCUGGCGCCGGCUGGGCAACAUUCCGCGUGGACCGUCCCCUCGGUAAUGGCGAAUGGGACCCA [A51C G53U], the self-cleavage turned out to be 0.69.

GGCCGGCAUGGUCCCAGCCUCCUCGCUGGCGCCGGCUGGGCAACAUUCCGCGAGGACCGUCCCCUCGGUAAUGGCGAAUGGGACCCA [A51C G53A]: the self-cleavage was determined as 0.491.

With GGCCGGCAUGGUCCCAGCCUCCUCGCUGGCGCCGGCUGGGCAACAUUCCGCGGGGACCGUCCCCUCGGUAAGGGCGAAUGGGACCCA [A51C U72G], the self-cleavage worked out at 0.529.

With GGCCGGCAUGGUCCCAGCCUCCUCGCUGGCGCCGGCUGGGCAACAUUCCGCGGGGACCGUCCCCUCGGUAAAGGCGAAUGGGACCCA [A51C U72A], the self-cleavage is 0.609.

As to GGCCGGCAUGGUCCCAGCCUCCUCGCUGGCGCCGGCUGGGCAACAUUCCUAGGGGACCGUCCCCUCGGUUAUGGCGAAUGGGACCCA [G50U A70U], the self-cleavage worked out at 0.946.

As to GGCCGGCAUGGUCCCAGCCUCCUCGCUGGCGCCGGCUGGGCAACAUUCCCAGGGGACCGGCCCCUCGGUAAUGGCGAAUGGGACCCA [G50C U60G], the self-cleavage was determined as 1.03.

Take GGCCGGCAUGGUCCCAGCCUCCUCGCUGGCGCCGGCUGGGCAACAUUCCCAGGGGACCGACCCCUCGGUAAUGGCGAAUGGGACCCA [G50C U60A]: the self-cleavage was 1.03.

On to GGCCGGCAUGGUCCCAGCCUCCUCGCUGGCGCCGGCUGGGCAACAUUCCGCGGGGAGCGUCCCCUCGGUAAUGGCGAAUGGGACCCA [A51C C57G], for which the self-cleavage turned out to be 1.14.

On to GGCCGGCAUGGUCCCAGCCUCCUCGCUGGCGCCGGCUGGGCAACAUUCCGCGGGGACCGUCCCCUCGGUAAUGGCGUAUGGGACCCA [A51C A77U], for which the self-cleavage was 0.429.

Take GGCCGGCAUGGUCCCAGCCUCCUCGCUGGCGCCGGCUGGGCAACAUUCCGCGGGGACCGUCCCCUCGGUAAUGGCGGAUGGGACCCA [A51C A77G]: the self-cleavage was determined as 0.643.

As for GGCCGGCAUGGUCCCAGCCUCCUCGCUGGCGCCGGCUGGGCAACAUUCCCAGGGGACCGUCCCCUCGGUAAUGGCGAAUGUGACCCA [G50C G81U], the self-cleavage was found to be 0.263.

GGCCGGCAUGGUCCCAGCCUCCUCGCUGGCGCCGGCUGGGCAACAUUCCUAGUGGACCGUCCCCUCGGUAAUGGCGAAUGGGACCCA [G50U G53U]: the self-cleavage came to 0.735.

Regarding GGCCGGCAUGGUCCCAGCCUCCUCGCUGGCGCCGGCUGGGCAACAUUCCUAGGGGACCGUCCCCUCGGUAAUGGCGAUUGGGACCCA [G50U A78U], the self-cleavage worked out at 0.229.

Consider GGCCGGCAUGGUCCCAGCCUCCUCGCUGGCGCCGGCUGGGCAACAUUCCCAGGGGACCGUCCCCUCGGUAAUGGCGAAUGGGAGCCA [G50C C84G], for which the self-cleavage was found to be 0.542.
